B1: human aryl hydrocarbon receptor (AHR), full length (receptor, UniProt P35869 1-848, looked up)
chain: MNSSSANITYASRKRRKPVQKTVKPIPAEGIKSNPSKRHRDRLNTELDRLASLLPFPQDVINKLDKLSVLRLSVSYLRAKSFFDVALKSSPTERNGGQDNCRAANFREGLNLQEGEFLLQALNGFVLVVTTDALVFYASSTIQDYLGFQQSDVIHQSVYELIHTEDRAEFQRQLHWALNPSQCTESGQGIEEATGLPQTVVCYNPDQIPPENSPLMERCFICRLRCLLDNSSGFLAMNFQGKLKYLHGQKKKGKDGSILPPQLALFAIATPLQPPSILEIRTKNFIFRTKHKLDFTPIGCDAKGRIVLGYTEAELCTRGSGYQFIHAADMLYCAESHIRMIKTGESGMIVFRLLTKNNRWTWVQSNARLLYKNGRPDYIIVTQRPLTDEEGTEHLRKRNTKLPFMFTTGEAVLYEATNPFPAIMDPLPLRTKNGTSGKDSATTSTLSKDSLNPSSLLAAMMQQDESIYLYPASSTSSTAPFENNFFNESMNECRNWQDNTAPMGNDTILKHEQIDQPQDVNSFAGGHPGLFQDSKNSDLYSIMKNLGIDFEDIRHMQNEKFFRNDFSGEVDFRDIDLTDEILTYVQDSLSKSPFIPSDYQQQQSLALNSSCMVQEHLHLEQQQQHHQKQVVVEPQQQLCQKMKHMQVNGMFENWNSNQFVPFNCPQQDPQQYNVFTDLHGISQEFPYKSEMDSMPYTQNFISCNQPVLPQHSKCTELDYPMGSFEPSPYPTTSSLEDFVTCLQLPENQKHGLNPQSAIITPQTCYAGAVSMYQCQPEPQHTHVGQMQYNPVLPGQQAFLNKFQNGVLNETYPAELNNINNTQTTTHLQPLHHPSEARPFPDLTSSGFL
notes: Full length in yeast (PRSAHR) and in the Hsp90 co-IP (huAHR); also called huAHR; Ah receptor
B2: MOP4 (other)
chain: MDEDEKDRAKRASRNKSEKKRRDQFNVLIKELSSMLPGNTRKMDKTTVLEEVIGFLQKHNEVSAQTEICDIQQDWKPSFLSNEEFTQLMLEALDGFIIAVTTDGSIIYVSDSITPLLGHLPSDVMDQNLLNFLPEQEHSEVYKILSSHMLVTDSPSPEYLKSDGDLEFYCHLLRGSLNPKEFPTYEYIKFVGNFRSYNNVPSPSCNGFDNTLSRPCRVPLGKEVCFIATVRLATPQFLKEMCIVDEPLEEFTSRHSLEWKFLFLDHRAPPIIGYLPFEVLGTSGYDYYHIDDLELLARCHQHLMQFGKGKSCCYRFLTKGQQWIWLQTHYYITYHQWNSKPEFIVCTHSVVSYADVRVERRQELALEDPPSEALHSSALKDKGSSLEPRQHFNALDVGASGLNTSHSPSASSRSSHKSSHTAMSEPTSTPTKLMAEASTPALPRSATLPQELPVPGLSQAATMPAPLPSPSSCDLTQQLLPQTVLQSTPAPMAQFSAQFSMFQTIKDQLEQRTRILQANIRWQQEELHKIQEQLCLVQDSNVQMFLQQPAVSLSFSSTQRPEAQQQLQQRSAAVTQPQLGAGPQLPGQISSAQVTSQHLLRESSVISTQGPKPMRSSQLMQSSGRS
notes: also called huMOP4
B3: MOP6 (other)
chain: MAPTKPSFQQDPSRRERLQALRKEKSRDAARSRRGKENFEFYELAKLLPLPAAITSQLDKASIIRLTISYLKMRDFANQGDPPWNLRMEGPPPNTSVKGAQRRRSPSALAIEVFEAHLGSHILQSLDGFVFALNQEGKFLYISETVSIYLGLSQVELTGSSVFDYVHPGDHVEMAEQLGMKLPPGRGLLSQGTAEDGASSASSSSQSETPEPVESTSPSLLTTDNTLERSFFIRMKSTLTKRGVHIKSSGYKVIHITGRLRLRVSLSHGRTVPSQIMGLVVVAHALPPPTINEVRIDCHMFVTRVNMDLNIIYCENRISDYMDLTPVDIVGKRCYHFIHAEDVEGIRHSHLDLLNKGQCVTKYYRWMQKNGGYIWIQSSATIAINAKNANEKNIIWVNYLLSNPEYKDTPMDIAQLPHLPEKTSESSETSDSESDSKDTSGITEDNENSKSDEKGNQSENSEDPEPDRKKSGNACDNDMNCNDDGHSSSNPDSRDSDDSFEHSDFENPKAGEDGFGALGAMQIKVERYVESESDLRLQNCESLTSDSAKDSDSAGEAGAQASSKHQKRKKRRKRQKGGSASRRRLSSASSPGGLDAGLVEPPRLLSSPNSASVLKIKTEISEPINFDNDSSIWNYPPNREISRNESPYSMTKPPSSEHFPSPQGGGGGGGGGGGLHVAIPDSVLTPPGADG
notes: Mentioned only in the general description
B4: LexA control (other, UniProt P0A7C2 1-202, looked up)
chain: MKALTARQQEVFDLIRDHISQTGMPPTRAEIAQRLGFRSPNAAEEHLKALARKGVIEIVSGASRGIRLLQEEEEGLPLVGRVAAGEPLLAQQHIEGHYQVDPSLFKPNADFLLRVSGMSMKDIGIMDGDLLAVHKTQDVRNGQVVVARIDDEVTVKRLKKQGNKVELLPENSEFKPIVVDLRQQSFTIEGLAVGVIRNGDWL
B5: LexAbHLH-PAS fusion of CLOCK (PL828) (other, UniProt P0A7C2 1-202, looked up)
chain: MKALTARQQEVFDLIRDHISQTGMPPTRAEIAQRLGFRSPNAAEEHLKALARKGVIEIVSGASRGIRLLQEEEEGLPLVGRVAAGEPLLAQQHIEGHYQVDPSLFKPNADFLLRVSGMSMKDIGIMDGDLLAVHKTQDVRNGQVVVARIDDEVTVKRLKKQGNKVELLPENSEFKPIVVDLRQQSFTIEGLAVGVIRNGDWLMLFTVSCSKMSSIVDRDDSSIFDGLVEEDDKDKAKRVSRNKSEKKRRDQFNVLIKELGSMLPGNARKMDKSTVLQKSIDFLRKHKEITAQSDASEIRQDWKPTFLSNEEFTQLMLEALDGFFLAIMTDGSIIYVSESVTSLLEHLPSDLVDQSIFNFIPEGEHSEVYKILSTHLLESDSLTPEYLKSKNQLEFCCHMLRGTIDPKEPSTYEYVKFIGNFKSLNSVSSSAHNGFEGTIQRTHRPSYEDRVCFVATVRLATPQFIKEMCTVEEPNEEFTSRHSLEWKFLFLDHRAPPIIGYLPFEVLGTSGYDYYHVDDLENLAKCHEHLMQYGKGKSCYYRFLTKGQQWIWLQTHYYITYHQWNSRPEFIVCTHTVVSYAEVRAERRRELG
notes: range 1-202;domain: bHLH-PAS domains; also called LexA fusion of CLOCK

Experiments:
Hsp90 = target: T1, Hsp90; assay: co-IP of 35S-labelled in vitro translated protein with anti-Hsp90 antibody 3G3p90, phosphoimager
T1 construct: Endogenous Hsp90 of the translation lysate
Protocol: Coimmunoprecipitation with Hsp90. Each MOP construct was in vitro translated in the presence of [^35S]-methionine in a TNT coupled transcription/translation system (Promega). Hsp90 immunoprecipitation assays were performed with monoclonal antibody 3G3p90 or a control IgM antibody, TEPC 183 (Sigma) essentially as described. Each immunoprecipitation was subjected to SDS-PAGE, and the resulting gel was dried. The level of radioactivity in each coprecipitated protein band was quantified on a Bio-Rad GS-363 Molecular Imager System. The amount of protein immunoprecipitated with the Hsp90 antibody is presented as a percentage of the amount of murine AHR immunoprecipitated in parallel assays.
4. Interaction of MOPs with Hsp90. In an effort to assess a MOP's ability to interact with Hsp90, we performed coimmunoprecipitation assays with anti Hsp90 antibodies. Given the remarkable stability of the Hsp90 complex with the AHR from the C57BL/6J mouse, we used this receptor species as a reference and compared all interactions relative to it. As additional controls, we immunoprecipitated ARNT and the human AHR as negative and positive controls, respectively. Despite our ability to readily detect huAHR-Hsp90 interactions, we were unable to detect ARNT, MOP2 or MOP5 interactions with Hsp90. In contrast, huAHR, MOP1, MOP3 and MOP4 all immunoprecipitated with HSP90-specific antisera. […]

[1] = target: B1; assay: co-IP of 35S-labelled in vitro translated protein with AHR-specific antiserum
Protocol: (§1) 1. Interaction of MOPs with the AHR and ARNT in vitro; Coimmunoprecipitation experiments. We first performed coimmunoprecipitation experiments to determine if MOPs 1–4 had the capacity to interact with either the AHR or ARNT in vitro. These proteins were expressed in a reticulocyte lysate system in the presence of ^35S-methionine and then incubated in the presence or absence of the AHR or ARNT. Complex formation was assayed by coimmunoprecipitation with AHR or ARNT specific antisera, followed by quantitation of coimmunoprecipitated ^35S-labeled MOP by phosphoimage analysis. Interactions were identified by a reproducible increase in an AHR or ARNT-dependent precipitation of MOP protein. Because we have observed considerable variability in this coimmunoprecipitation assay, each experiment was performed at least three times.

[2] = target: T2, AH receptor nuclear translocator (ARNT), full length (human, UniProt P27540 1-789); assay: co-IP of 35S-labelled in vitro translated protein with ARNT-specific antiserum
T2 construct: Full length: in vitro translated, expressed in yeast (PL574) or transfected; Endogenous ARNT in the Hep3B experiment; also called huARNT; hARNT
Protocol: as §1

[3] = target: T2, AH receptor nuclear translocator …; assay: functional data, assay not described
[4] = target: T2, AH receptor nuclear translocator …; assay: yeast interaction trap (mating), X-Gal overlay
Protocol: Interaction Screen Against Known bHLH-PAS Proteins. LexAbHLH-PAS fusion proteins ("baits") of HIF1α, HIF2α, MOP3, MOP4, AHR, ARNT, and CLOCK were transformed into the L40 strain of yeast. The full-length ("fish") MOP3 and ARNT plasmids were transformed into the AMR70 yeast strain, and these transformants were plated onto yeast complete media plates (Kaiser et al., 1994, in *Methods in Yeast Genetics*, Cold Spring Harbor Press, Plainview, N.Y.). The L40 yeast harboring the bait constructs were replica plated onto these yeast complete media plates and mated for 8 hr at 30° C. The plates were then replica plated onto selective media and grown for an additional day at 30° C. 5-Bromo-4-chloro-3-indolyl […]-galactoside (X-Gal) overlay assays were performed to determine the relative expression of the lacZ reporter gene (Bohen and Yamamoto, 1993, PNAS 90: 11424–11428). Western blot analysis, using LexA-specific sera, was performed on extract from each transformant to confirm expression of the fusion protein (see Example 1).

T2 sequence (P27540 whole entry): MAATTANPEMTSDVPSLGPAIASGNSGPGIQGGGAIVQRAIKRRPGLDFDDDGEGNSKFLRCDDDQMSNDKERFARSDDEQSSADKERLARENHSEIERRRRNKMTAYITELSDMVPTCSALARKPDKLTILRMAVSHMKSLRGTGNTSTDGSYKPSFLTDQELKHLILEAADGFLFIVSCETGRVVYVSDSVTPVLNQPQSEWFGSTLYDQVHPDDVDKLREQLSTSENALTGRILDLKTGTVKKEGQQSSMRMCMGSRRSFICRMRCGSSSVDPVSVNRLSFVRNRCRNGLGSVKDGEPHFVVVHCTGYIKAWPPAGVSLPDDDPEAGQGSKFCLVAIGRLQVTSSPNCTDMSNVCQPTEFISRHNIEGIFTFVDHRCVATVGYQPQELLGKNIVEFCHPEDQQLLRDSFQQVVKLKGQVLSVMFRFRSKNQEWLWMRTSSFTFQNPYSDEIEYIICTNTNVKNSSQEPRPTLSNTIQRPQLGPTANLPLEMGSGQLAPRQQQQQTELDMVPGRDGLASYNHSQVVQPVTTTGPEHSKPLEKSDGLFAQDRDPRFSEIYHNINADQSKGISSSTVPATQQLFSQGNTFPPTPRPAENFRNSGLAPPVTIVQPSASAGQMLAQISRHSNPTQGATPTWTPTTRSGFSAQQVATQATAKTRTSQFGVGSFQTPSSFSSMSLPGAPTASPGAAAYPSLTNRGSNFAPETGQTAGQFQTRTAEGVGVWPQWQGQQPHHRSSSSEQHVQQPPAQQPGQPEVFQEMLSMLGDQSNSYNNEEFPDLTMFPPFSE

Row | percent of the amount of murine AHR immunoprecipitated with the Hsp90 antibody (Hsp90) [%] | binding result [4] | Binder | also measured
1 | 53 |  | B1 | 
2 | 31 |  | B2 | binding result [1]: no binding; binding result [2]: no binding
3 |  |  | B3 | binding result [3]: binds
4 |  | no binding | B4 | 
5 |  | no binding | B5 | 
